Results as given in the FLAb antibody collection (doi:10.7554/elife.23156).

What was measured:
fluorescein = assay: Kd (Tite-Seq); conditions: format: scFv 4-4-20, heavy + light
[1] = yeast surface expression (ratio to wild type); higher = more expressed; conditions: format: scFv 4-4-20, heavy + light

B1: unnamed (protein)
chain 1: EVKLDETGGGLVQPGRPMKLSCVASGFEPQSPSPQNKRQSPEKGLEWVAQIRNKPYNYETYYSDSVKGRFTISRDDSKSSVYLQMNNLRVEDMGIYYCTAHETLLCCLWQGTSVTVS
chain 2: DVVMTQTPLSLPVSLGDQASISCRSSQSLVHSNGNTYLRWYLQKPGQSPKVLIYKVSNRFSGVPDRFSGSGSGTDFTLKISRVEAEDLGVYFCSQSTHVPWTFGGGTKLEIK
fluorescein
  Kd: ≥ 10 µM
[1]
  yeast surface expression: 0.444
